Test results reported in patent US11390894B2, “Biological processes for the production of aryl sulfates” (CysBio ApS, priority 2014, dated 2022).

Tests used:
[1] = system: tyrosine; assay: pHCA and zosteric acid in culture media of E. coli expressing an aryl sulfotransferase in combination with a tyrosine ammonia lyase; type: cell-based, Escherichia coli; details: M9 glucose, 0.1 mM IPTG, no substrate added
Protocol: (§1) The concentration of p-courmaric acid (pHCA) and zosteric acid in the supernatant was quantified by high performance (HPLC) and compared to chemical standards. HPLC was done on a Thermo setup using a HS-F5 column and mobile phases: 5 mM ammonium formate pH 4.0 (A) and acetonitrile (B) at 1.5 mL min-1, using a gradient elution starting at 5% B. From 0.5 min after injection to 7 min, the fraction of B increased linearly from 5% to 60%, and between 9.5 min and 9.6 the fraction of B decreased back to 5%, and remaining there until 12 min. pHCA and zosteric acid were quantified by measuring absorbance at 277 nm.
The enzyme RmXAL from Rhodotorula mucilaginosa/Rhodotorula rubra (SEQ ID NO: 20) has tyrosine ammonia lyase activity, thus catalyzing the non-oxidative deamination of the amino acid tyrosine, releasing p-coumaric acid (pHCA) and ammonia. The gene encoding RmXAL was codon optimized using standard algorithms for expression in E. coli available by GeneArt (Life Technologies) and amplified by PCR using the primers shown in table 5 and inserted into the pCDFDuet-1 vector (Novagen/Life Technologies), which had been digested by the restriction enzymes NdeI and BgIII, using Gibson reaction (New England Biolabs). FIG. 4 provides an image of the plasmid expressing RmXAL.
The resulting plasmid was co-transformed into E. coli BL21(DE3)pLysS cells (Life Technologies) alone or together with the plasmid expressing SULT1A1 from Homo sapiens (example 1). The resulting strains was grown in M9 media with glucose as a carbon source, with 0.1 mM IPTG for induction of gene expression. Samples were taken as described previously (example 1) for analysis of product formation. […] RmXAL allowed the production of pHCA without addition of any substrate, thus providing a heterologous pathway from the cells normal metabolism to a heterologous product. The additional expression of an aryl sulfotransferase, exemplified by SULT1A1 from Homo sapiens, allowed the in vivo conversion of pHCA to zosteric acid. Thus, an aryl sulfotransferase can act upon a compound produced in vivo and the cells can release the resulting sulfated product to the medium.

[2] = system: tyrosine; assay: In vivo supply of p-coumaric acid by tyrosine ammonia-lyases co-expressed with SULT1A1 rat in E. coli; type: cell-based, Escherichia coli; details: M9 0.2% glucose, 2 mM tyrosine, 1 mM IPTG, overnight 37° C., supernatant
Protocol: as §1
The genes encoding the tyrosine ammonia-lyases RcTAL (from Rhodobacter capsulatus; SEQ ID NO: 48), RsTAL (from Rhodobacter sphaeroides; SEQ ID NO: 17) and FjTAL (from Flavobacterium johnsoniae; SEQ ID NO: 14) were cloned into expression vectors as follows. Genes (SEQ ID NO: 49, 50, and 51, respectively) were optimized for E. coli and synthesized by GeneArt, amplified by PCR using the oligonucleotides shown in the table below, and cloned into pCDFDuet-1 (Novagen): The plasmid was digested with NdeI and BgIII and gel purified. The genes were inserted by isothermal assembly using Gibson Assembly Master Mix (New England Biolabs), and transformed into chemically competent DH5a (laboratory strain) or NEB5α (New England Biolabs), selecting for resistance to 50 μg mL^−1 spectinomycin in LB medium. Resulting plasmids pCBJ215 (RsTAL), pCBJ228 (FjTAL) and pCBJ297 (RcTAL) (FIGS. 6 to 8, respectively) were co-transformed by electroporation into the E. coli expression strain BL21(DE3) (Invitrogen/Life Technologies) together with a pETDuet-1-based plasmid expressing SULT1A1 from rat (Example 1). Transformation cultures were plated on LB containing 50 μg mL^−1 spectinomycin and 100 μg mL^−1 ampicillin. A control strain carrying pCDFDuet-1 was also made.
Strains harboring recombinant plasmids were pre-cultured in 2×YT liquid medium with 100 μg mL^−1 ampicillin and 50 μg mL^−1 spectinomycin and incubated at 37° C. and 250 rpm overnight. The following day, each pre-culture was transferred into 5 ml of M9 minimal medium with 0.2% glucose, 2 mM tyrosine and 1 mM IPTG for induction of expression. Cultures were placed in an incubator at 37° C. with shaking at 250 rpm overnight. The supernatants were then collected by centrifugation twice and applied to HPLC analysis as described in example 1, and the titers of p-coumaric acid (pHCA) and zosteric acid (ZA) were quantified using chemical standards and are presented in the table below.

[3] = system: resveratrol; assay: Percent conversion of substrate by E. coli cells expressing sulfotransferases; type: cell-based, Escherichia coli; details: 95 μM resveratrol, M9 medium, overnight 37° C.
Protocol: as §1
(§2) Different sulfotransferases were examined for their substrate specificities against three substrates. We tested the sulfotransferases mentioned in example 1, as well as additional ones. The genes encoding these were cloned as described in example 1 using the primers shown in the table below from cDNA libraries of the respective organisms, except for the SULT1A1 from rat (Rattus norvegicus) codon-optimized for E. coli (described above). The resulting vectors were transformed into BL21(DE3)pLysS.
(§3) The resulting strains were grown in M9 medium containing either 100 μM pHCA, 95 μM resveratrol or 87 M kaempferol. The cultures were grown overnight at 37° C., 300 rpm. The following day the supernatants were isolated and examined by HPLC as described in example 1.

[4] = system: kaempferol; assay: as above; type: cell-based, Escherichia coli; details: 87 μM kaempferol, M9 medium, overnight 37° C.
Protocol: as §1, §2, §3

[5] = system: pHCA; assay: as above; type: cell-based, Escherichia coli; details: 100 μM pHCA, M9 medium, overnight 37° C.
Protocol: as §1, §2, §3

[6] = system: p-coumaric acid; assay: Production of zosteric acid in Saccharomyces cerevisiae expressing SULT1A1; type: cell-based; details: strain CEN.PK102-5B, modified Delft medium, 10 mM p-coumaric acid, overnight 30° C., supernatant
Protocol: as §1
The gene encoding aryl sulfotransferase SULT1A (Example 1) was cloned after a TEF1 promoter into an episomal plasmid with a 2-micron origin of replication as follows. The gene was amplified by PCR using primers CBJP633 and CBJP634. Alternatively, the gene was codon-optimized for E. coli and synthesized by GeneArt and amplified by primers CBJP635 and CBJP636. The TEF1 promoter (Jensen et al., 2014, FEMS Yeast Res 14: 238-248) was amplified by PCR using the primers PTEF1_fw and PTEF1_rv. Plasmid pCfB132 (Jensen et al., supra) was digested by restriction enzymes AsiSI and Nt.Bsml. […]

B1: RmXAL: enzyme from Rhodotorula mucilaginosa/Rhodotorula rubra with tyrosine ammonia lyase activity (protein, listed as Rhodotorula mucilaginosa)
chain: MAPSVDSIATSVANSLSNGLHAAAAANGGDVHKKTAGAGSLLPTTETTQLDIVERILADAGATDQIKLDGYTLTLGDVVGAARRGRSVKVADSPHIREKIDASVEFLRTQLDNSVYGVTTGFGGSADTRTEDAISLQKALLEHQLCGVLPTSMDGFALGRGLENSLPLEVVRGAMTIRVNSLTRGHSAVRIVVLEALTNFLNHGITPIVPLRGTISASGDLSPLSYIAASITGHPDSKVHVDGKIMSAQEAIALKGLQPVVLGPKEGLGLVNGTAVSASMATLALTDAHVLSLLAQALTALTVEAMVGHAGSFHPFLHDVTRPHPTQIEVARNIRTLLEGSKYAVHHETEVKVKDDEGILRQDRYPLRCSPQWLGPLVSDMIHAHAVLSLEAGQSTTDNPLIDLENKMTHHGGAFMASSVGNTMEKTRLAVALMGKVSFTQLTEMLNAGMNRALPSCLAAEDPSLSYHCKGLDIAAAAYTSELGHLANPVSTHVQPAEMGNQAINSLALISARRTAEANDVLSLLLATHLYCVLQAVDLRAMEFEHTKAFEPMVTELLKQHFGALATAEVEDKVRKSIYKRLQQNNSYDLEQRWHDTFSVATGAVVEALAGQEVSLASLNAWKVACAEKAIALTRSVRDSFWAAPSSSSPALKYLSPRTRVLYSFVREEVGVKARRGDVYLGKQEVTIGTNVSRIYEAIKSGCIAPVLVKMMA
Zosteric acid formed [1]: Not detectable | pHCA [1]: 0.04 mM

B2: SULT1A1 Homo sapiens, RmXAL: SULT1A1 from Homo sapiens co-expressed with tyrosine ammonia lyase RmXAL in E. coli (protein, UniProt P50225 1-295, looked up)
Sulfotransferase 1A1: MELIQDTSRPPLEYVKGVPLIKYFAEALGPLQSFQARPDDLLISTYPKSGTTWVSQILDMIYQGGDLEKCHRAPIFMRVPFLEFKAPGIPSGMETLKDTPAPRLLKTHLPLALLPQTLLDQKVKVVYVARNAKDVAVSYYHFYHMAKVHPEPGTWDSFLEKFMVGEVSYGSWYQHVQEWWELSRTHPVLYLFYEDMKENPKREIQKILEFVGRSLPEETVDFVVQHTSFKEMKKNPMTNYTTVPQEFMDHSISPFMRKGMAGDWKTTFTVAQNERFDADYAEKMAGCSLSFRSEL
modifications: co-expressed with RmXAL
notes: SULT1A1 from Homo sapiens co-expressed with tyrosine ammonia lyase RmXAL in E. coli
Zosteric acid formed [1]: 0.01 mM | pHCA [1]: 0.02 mM

B3: FjTAL: tyrosine ammonia-lyase from Flavobacterium johnsoniae (protein, listed as Flavobacterium johnsoniae)
chain: MNTINEYLSLEEFEAIIFGNQKVTISDVVVNRVNESFNFLKEFSGNKVIYGVNTGFGPMAQYRIKESDQIQLQYNLIRSHSSGTGKPLSPVCAKAAILARLNTLSLGNSGVHPSVINLMSELINKDITPLIFEHGGVGASGDLVQLSHLALVLIGEGEVFYKGERRPTPEVFEIEGLKPIQVEIREGLALINGTSVMTGIGVVNVYHAKKLLDWSLKSSCAINELVQAYDDHFSAELNQTKRHKGQQEIALKMRQNLSDSTLIRKREDHLYSGENTEEIFKEKVQEYYSLRCVPQILGPVLETINNVASILEDEFNSANDNPIIDVKNQHVYHGGNFHGDYISLEMDKLKIVITKLTMLAERQLNYLLNSKINELLPPFVNLGTLGFNFGMQGVQFTATSTTAESQMLSNPMYVHSIPNNNDNQDIVSMGTNSAVITSKVIENAFEVLAIEMITIVQAIDYLGQKDKISSVSKKWYDEIRNIIPTFKEDQVMYPFVQKVKDHLINN
μM ZA [2]: 16 µM | μM pHCA [2]: 398 μM

B4: SULT1A1 Rattus norvegicus (Codon-optimized for E. coli): SULT1A1 from rat expressed from a gene codon-optimized for E. coli (protein, UniProt P17988 1-291, looked up)
Sulfotransferase 1A1: MEFSRPPLVHVKGIPLIKYFAETIGPLQNFTAWPDDLLISTYPKSGTTWMSEILDMIYQGGKLEKCGRAPIYARVPFLEFKCPGVPSGLETLEETPAPRLLKTHLPLSLLPQSLLDQKVKVIYIARNAKDVVVSYYNFYNMAKLHPDPGTWDSFLENFMDGEVSYGSWYQHVKEWWELRHTHPVLYLFYEDIKENPKREIKKILEFLGRSLPEETVDSIVHHTSFKKMKENCMTNYTTIPTEIMDHNVSPFMRKGTTGDWKNTFTVAQNERFDAHYAKTMTDCDFKFRCEL
percent conversion of resveratrol [3]: 58% | percent conversion of kaempferol [4]: 38% | percent conversion of pHCA [5]: 73% | μM ZA (averages and standard deviations of replicate experiments) [6]: 46.2 ± 3.5 µM
